Test results taken from patent US20170182124A1, “FGF21 Derivatives and Uses Thereof” (Novo Nordisk A/S, priority 2014, published 2017).
Read-outs that look alike come from different tables or passages of the source.

Biological target: FGF receptor/BKL complex
Experiment: FGF receptor potency in an Erk phosphorylation assay in HEK293 overexpressing human BKL
Assay type: cell-based
Conditions: HEK293/BKL cells, pERK after 12 minutes
Method: In order to test the binding of the FGF21 derivatives to albumin, the assay was performed in the absence of serum albumin as well as in the presence of human serum albumin (HSA) (0.1% final assay concentration). An increase in EC50 value (decrease in potency) in the presence of serum albumin for FGF21 derivatives would indicate binding to serum albumin and represents a method to predict a protracted pharmacokinetic profile of the test substance in animal models. MetFGF21 (SEQ ID NO:2) is included for reference.
HEK293 cells endogenously express several FGF receptors, including FGFR1c, FGFR3c and FGFR4. These cells are unresponsive to FGF21 until transfected with the co-receptor beta-klotho (BKL). Activation of the FGF receptor/BKL complex leads to activation of the MAPK/ERK signalling pathway and phosphorylation of ERK. The level of phosphorylated ERK (pERK) at a given time point increases with increasing concentrations of FGF21. As described below the level of pERK is measured after 12 minutes of stimulation with a range of FGF21 analogue concentrations.
The HEK293/beta-klotho cells are seeded with 30.000 cells/well in 96 well plates in DMEM (BioWhittaker #BE12-604F/U1), supplemented with 10% FCS (Gibco #16140-071), 1% penicillin/streptomycin (Gibco #15140), 100 µg/ml Hygromycin B, (Calbiochem, # 400052). Two days later and 2 hours before addition of compound the cell medium is exchanged with 100 ∞l basal medium (DMEM (BioWhittaker #BE12-604F/U1)). The FGF21 analogues are diluted in assay medium (DMEM (BioWhittaker #BE12-604F/U1) supplemented with 0.02% Tween20), warmed to 37° C., added to the cells (100 μl) and incubated at 37° C. for 12 minutes. The FGF21 derivatives were also tested in the presence of 0.1% HSA (Sigma—A1887). All medium is quickly removed and 50 μl lysis buffer is added pr. well. The plate is shaken for 5 minutes and the lysate is ready for measurement of pERK. pERK is measured in 384 well plates with the AlphaScreen SureFire kit (PerkinElmer #TGRES10K). This kit is based on ERK and pERK specific antibodies coupled to donor and acceptor beads. The presence of pERK will bring acceptor and donor beads in close proximity and a signal is generated that is read on EnVision. The data are analysed using GraphPad Prism and the potency of the FGF21 proteins is described as absolute EC50 value.

[1] = presence of 0.1% HSA, read-out: EC50 (0.1% HSA)

Chain of FGF receptor/BKL complex (Q86Z14 whole entry, one chain of several): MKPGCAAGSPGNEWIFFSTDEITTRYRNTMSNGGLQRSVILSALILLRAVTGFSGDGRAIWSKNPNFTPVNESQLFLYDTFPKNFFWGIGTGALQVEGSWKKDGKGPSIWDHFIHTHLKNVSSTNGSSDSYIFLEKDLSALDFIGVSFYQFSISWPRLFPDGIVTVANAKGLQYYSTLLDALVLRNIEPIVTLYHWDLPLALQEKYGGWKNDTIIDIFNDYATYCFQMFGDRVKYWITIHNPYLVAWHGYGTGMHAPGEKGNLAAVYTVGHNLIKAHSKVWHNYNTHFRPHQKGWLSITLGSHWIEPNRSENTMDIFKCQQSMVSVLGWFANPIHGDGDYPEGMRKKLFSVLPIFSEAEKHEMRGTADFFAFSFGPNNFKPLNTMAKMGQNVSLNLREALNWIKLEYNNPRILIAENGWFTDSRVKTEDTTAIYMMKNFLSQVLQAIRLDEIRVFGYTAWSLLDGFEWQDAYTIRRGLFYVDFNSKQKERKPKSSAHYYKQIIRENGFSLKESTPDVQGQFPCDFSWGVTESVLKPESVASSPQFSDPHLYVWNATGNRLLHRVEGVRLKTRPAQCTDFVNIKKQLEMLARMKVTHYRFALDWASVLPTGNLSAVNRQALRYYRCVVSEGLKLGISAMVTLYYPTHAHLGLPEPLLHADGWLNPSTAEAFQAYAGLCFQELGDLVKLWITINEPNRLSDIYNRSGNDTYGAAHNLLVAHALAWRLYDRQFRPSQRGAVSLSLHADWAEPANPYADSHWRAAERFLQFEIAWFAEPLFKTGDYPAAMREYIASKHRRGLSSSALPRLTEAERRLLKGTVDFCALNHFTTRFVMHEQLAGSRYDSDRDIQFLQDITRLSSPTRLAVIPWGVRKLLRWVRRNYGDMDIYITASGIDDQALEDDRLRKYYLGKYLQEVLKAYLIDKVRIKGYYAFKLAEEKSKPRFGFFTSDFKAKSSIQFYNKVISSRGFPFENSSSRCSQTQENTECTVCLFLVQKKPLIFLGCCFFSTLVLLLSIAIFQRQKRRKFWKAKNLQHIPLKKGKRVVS

Row | Molecule | EC50 (absence of HSA, read-out: EC50) [nM] | EC50 [1] [nM]
1 | 16-[[(1S)-4-[2-[2-[2-[2-[2-[2-(2-acetamidoethylamino)-2-oxo-ethoxy]ethoxy]ethylamino]-2-oxo-ethoxy]ethoxy]ethylamino]-1-carboxy-4-oxo-butyl]amino]-16-oxo-hexadecanoic … (protein) HPIPDSSPLLQFGGQVRQRYLYTDDAQQTEAHLEIREDGTVGGAADQSPESLLQLKALKPGVIQILGVKTSRFLCQRPDGALYGSLHFDPEACSFRELLLEDGYNVYQSEAHGLPLHLPGQKSPHRDPAPRGPARFLPLPGLPPALPEPPGILAPQPPDVGSSDPLSLVGPSQCRSPSYAS | 2 | 4
2 | 16-[[4-[[(1S)-4-[2-[2-[2-[2-[2-[2-(2-acetamidoethylamino)-2-oxo-ethoxy]ethoxy]ethylamino]-2-oxo-ethoxy]ethoxy]ethylamino]-1-carboxy-4-oxo-butyl]carbamoyl]cyclohexyl]methylamino]-16-oxo-hexadecanoic … (protein) HPIPDSSPLLQFGGQVRQRYLYTDDAQQTEAHLEIREDGTVGGAADQSPESLLQLKALKPGVIQILGVKTSRFLCQRPDGALYGSLHFDPEACSFRELLLEDGYNVYQSEAHGLPLHLPGQKSPHRDPAPRGPARFLPLPGLPPALPEPPGILAPQPPDVGSSDPLSLVGPSQGRSPSYCS | 3.5 | 3.2
3 | (2S)-6-acetamido-2-[[2-[2-[2-[[2-[2-[2-[[(4S)-4-carboxy-4-(16-sulfohexadecanoylamino)butanoyl]amino]ethoxy]ethoxy]acetyl]amino]ethoxy]ethoxy]acetyl]amino]hexadecanoic … (protein) HPIPDSSPLLQFGGQVRQRYLYTDDAQQTEAHLEIREDGTVGGAADQSPESLLQLKALKPGVIQILGVKTSRFLCQRPDGALYGSLHFDPEACSFRELLLEDGYNVYQSEAHGLPLHLPGQKSPHRDPAPRGPARFLPLPGLPPALPEPPGILAPQPPDVGSSDPLSLVGPSQGRSPSYCS | 4.2 | 7.1
4 | 20-[[(1S)-4-[2-[2-[2-[2-[2-[2-[[(1S)-5-acetamido-1-carboxy-pentyl]amino]-2-oxo-ethoxy]ethoxy]ethylamino]-2-oxo-ethoxy]ethoxy]ethylamino]-1-carboxy-4-oxo-butyl]amino]-20-oxo-icosanoic … (protein) HPIPDSSPLLQFGGQVRQRYLYTDDAQQTEAHLEIREDGTVGGAADQSPESLLQLKALKPGVIQILGVKTSRFLCQRPDGALYGSLHFDPEACSFRELLLEDGYNVYQSEAHGLPLHLPGQKSPHRDPAPRGPARFLPLPGLPPALPEPPGILAPQPPDVGSSDPLSLVGPSQGRSPSYCS | 6.1 | 52.5
5 | 20-[[4-[[(1S)-4-[2-[2-[2-[2-[2-[2-[[(1S)-5-[(2-acetamido]-1-carboxy-pentyl]amino]-2-oxo-ethoxy]ethoxy]ethylamino]-2-oxo-ethoxy]ethoxy]ethylamino]-1-carboxy-4-oxo-butyl]carbamoyl]cyclohexyl]methylamino … (protein) HPIPDSSPLLQFGGQVRQRYLYTDDAQQTEAHLEIREDGTVGGAADQSPESLLQLKALKPGVIQILGVKTSRFLCQRPDGALYGSLHFDPEACSFRELLLEDGYNVYQSEAHGLPLHLPGQKSPHRDPAPRGPARFLPLPGLPPALPEPPGILAPQPPDVGSSDPLSLVGPSQGRSPSYCS | 4 | 
6 | S{Beta-175}-[2-[2-[[2-[2-[2-[[2-[2-[2-[[(4S)-4-carboxy-4-(15-carboxypentadecanoyl-amino)butanoyl]amino]ethoxy]ethoxy]acetyl]amino]ethoxy]ethoxy]acetyl]amino]-ethylamino]-2-oxoethyl]-Ala[Gln121,Leu168, … (protein) HPIPDSSPLLQFGGQVRQRYLYTDDAQQTEAHLEIREDGTVGGAADQSPESLLQLKALKPGVIQILGVKTSRFLCQRPDGALYGSLHFDPEACSFRELLLEDGYNVYQSEAHGLPLHLPGQKSPHRDPAPRGPARFLPLPGLPPALPEPPGILAPQPPDVGSSDPLSLVGPSQGCSPSYAS | 1 | 1
7 | 20-[[(1S)-4-[[(1S)-4-[2-[2-[2-[2-[2-[2-[[(1S)-5-acetamido-1-carboxy-pentyl]amino]-2-oxo-ethoxy]ethoxy]ethylamino]-2-oxo-ethoxy]ethoxy]ethylamino]-1-carboxy-4-oxo-butyl]amino]-1-carboxy-4-oxo-butyl]ami … (protein) HPIPDSSPLLQFGGQVRQRYLYTDDAQQTEAHLEIREDGTVGGAADQSPESLLQLKALKPGVIQILGVKTSRFLCQRPDGALYGSLHFDPEACSFRELLLEDGYNVYQSEAHGLPLHLPGQKSPHRDPAPRGPARFLPLPGLPPALPEPPGILAPQPPDVGSSDPLSLVGPSQGRSPSYCS | 10.3 | 65.5
8 | S{Beta-169}-[2-[2-[[2-[2-[2-[[2-[2-[2-[[(4S)-4-carboxy-4-(15-carboxypentadecanoyl-amino)butanoyl]amino]ethoxy]ethoxy]acetyl]amino]ethoxy]ethoxy]acetyl]amino]-ethylamino]-2-oxoethyl]-Ala[Gln121,Leu168, … (protein) HPIPDSSPLLQFGGQVRQRYLYTDDAQQTEAHLEIREDGTVGGAADQSPESLLQLKALKPGVIQILGVKTSRFLCQRPDGALYGSLHFDPEACSFRELLLEDGYNVYQSEAHGLPLHLPGQKSPHRDPAPRGPARFLPLPGLPPALPEPPGILAPQPPDVGSSDPLSLCGPSQGRSPSYAS | 25 | 20
9 | 4-[10-[[4-[2-[2-[2-[2-[2-[2-[[(1S)-5-acetamido-1-carboxy-pentyl]amino]-2-oxo-ethoxy]ethoxy]ethylamino]-2-oxo-ethoxy]ethoxy]ethylamino]-4-oxo-butyl]sulfonylamino]-10-oxo-decoxy]benzoic … (protein) HPIPDSSPLLQFGGQVRQRYLYTDDAQQTEAHLEIREDGTVGGAADQSPESLLQLKALKPGVIQILGVKTSRFLCQRPDGALYGSLHFDPEACSFRELLLEDGYNVYQSEAHGLPLHLPGQKSPHRDPAPRGPARFLPLPGLPPALPEPPGILAPQPPDVGSSDPLSLVGPSQGRSPSYCS | 3.2 | 4
10 | S{Beta-176}-[2-[2-[[2-[2-[2-[[2-[2-[2-[[(4S)-4-carboxy-4-(15-carboxypentadecanoyl-amino)butanoyl]amino]ethoxy]ethoxy]acetyl]amino]ethoxy]ethoxy]acetyl]amino]-ethylamino]-2-oxoethyl]-Ala[Gln121,Leu168, … (protein) HPIPDSSPLLQFGGQVRQRYLYTDDAQQTEAHLEIREDGTVGGAADQSPESLLQLKALKPGVIQILGVKTSRFLCQRPDGALYGSLHFDPEACSFRELLLEDGYNVYQSEAHGLPLHLPGQKSPHRDPAPRGPARFLPLPGLPPALPEPPGILAPQPPDVGSSDPLSLVGPSQGRCPSYAS | 214 | 373
11 | 12-[[(1S)-4-[2-[2-[2-[2-[2-[2-[[(1S)-5-acetamido-1-carboxy-pentyl]amino]-2-oxo-ethoxy]ethoxy]ethylamino]-2-oxo-ethoxy]ethoxy]ethylamino]-1-carboxy-4-oxo-butyl]amino]-12-oxo-dodecanoic … (protein) HPIPDSSPLLQFGGQVRQRYLYTDDAQQTEAHLEIREDGTVGGAADQSPESLLQLKALKPGVIQILGVKTSRFLCQRPDGALYGSLHFDPEACSFRELLLEDGYNVYQSEAHGLPLHLPGQKSPHRDPAPRGPARFLPLPGLPPALPEPPGILAPQPPDVGSSDPLSLVGPSQGRSPSYCS | 8.4 | 3.4
